Values belong to the binder of their own block, whether it stands above or below them. No end group written: not given here. *: point of attachment. Biotin = O=C1N[C@H]2[C@H](CS[C@H]2CCCCC(=O)*)N1
Legend:
[1] = molecular target: T1, GST.ERK2 (non-phosphorylated ERK2 coupled to glutathione-S-transferase) (Mus musculus (Mouse), UniProt P63085 1-358); experiment: ELISA, biotinylated peptide on streptavidin plate, detection with SC1647
T1 construct: not shown: glutathione-S-transferase encoded by pGEX vector; N-terminal position assu
Description: Peptide fragments corresponding to regions of the cytoplasmic tail domain of the β6 subunit were screened in an enzyme-linked immunosorbent assay (ELISA) for binding with ERK2. The 52 amino acid long β6 cytoplasmic tail is shown in FIG. 16 as are the amino acid sequences for the cytoplasmic domains of the β1 to β3 subunits. In particular, four synthetic peptides designated fragment 1 to fragment 4 were prepared and biotinylated at the N-terminal end of each, respectively (Auspep Pty Ltd, Melbourne Australia).
Overlapping biotinylated fragments 1 to 4 were coated onto streptavidin coated polystyrene plates (Pierce, Rockford Ill. USA, Cat No. 15125) and the ELISA performed substantially according to manufacturers instructions. […]
Binding of ERK to the peptides is detected using 100 µl anti-ERK1/2 mAb SC1647 (Santa Cruz) as the primary antibody at a dilution of 1:700 (isotype matched antibody IgG2b is used as a control). […] A […] of detection reagent (alkaline phosphatase detection kit-Biorad) is then introduced into each well after a final washing step and allowed to react for 15-30 minutes at room temperature in the dark before absorbance is measured at 405 nm. […]

[2] = molecular target: T2, ERK2 (soluble ERK2 used in the ELISAs of Examples 10 to 12) (Mus musculus (Mouse), UniProt P63085 1-358, limits assumed); experiment: ELISA, corrected for non-specific binding (FIG. 34)
[3] = molecular target: T2, ERK2 (soluble ERK2 used in the ELISAs …); experiment: ELISA of ERK2 on synthetic peptide
[4] = molecular target: T1, GST.ERK2 (non-phosphorylated ERK2 …); experiment: ELISA over a range of peptide concentrations (FIG. 20)
[5] = molecular target: T3, ERK2 cleaved from GST-ERK2 by thrombin (Mus musculus (Mouse), UniProt P63085 1-358, limits assumed); experiment: ELISA with thrombin-cleaved ERK2 (FIG. 23)
T3 construct: also called ERK2 (thrombin cleaved)
T3 sequence (P63085 whole entry): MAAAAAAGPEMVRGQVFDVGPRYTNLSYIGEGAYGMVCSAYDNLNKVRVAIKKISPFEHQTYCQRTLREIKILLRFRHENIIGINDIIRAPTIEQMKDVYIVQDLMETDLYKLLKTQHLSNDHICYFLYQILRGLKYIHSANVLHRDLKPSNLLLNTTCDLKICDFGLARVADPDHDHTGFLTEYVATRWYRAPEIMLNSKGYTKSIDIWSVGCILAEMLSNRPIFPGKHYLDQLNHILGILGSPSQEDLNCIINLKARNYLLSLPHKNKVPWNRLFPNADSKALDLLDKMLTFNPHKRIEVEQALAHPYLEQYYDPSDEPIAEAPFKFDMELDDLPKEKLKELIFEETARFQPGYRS

T1 sequence (P63085 whole entry): as above
T2 sequence (P63085 whole entry): as above

Binder: Biotin-RSKAKWQTGTNPLYRGSTST (also called peptide fragment 2) [Fragment 2 of the β6 cytoplasmic tail]
binding result [1]: binds

Binder: RSRARYEMASNPLYR (also called β5 peptide; β5 fragment) [β5 cytoplasmic domain peptide RSRARYEMASNPLYR]
binding result [2]: binds

Binder: KFEKEKMNAKWDTGENPIYK (also called β1 peptide) [β1 cytoplasmic domain peptide KFEKEKMNAKWDTGENPIYK]
binding result [3]: no binding (tested: ERK2 (1 µm) by the legend of FIG. 35C)

Binder: RSKAKNPLYR (4 with WQTGT omitted) [10 mer peptide 10(4) RSKAKNPLYR]
binding result [5]: binds

The next lines start with the values.

binding result [2]: binds
Binder: RARAKWDTANNPLYK (also called β3 peptide) [β3 cytoplasmic domain peptide RARAKWDTANNPLYK]

binding result [4]: binds
Binder: RSKAKWQTGT (also: biotinylated, position not given here) [10 mer test peptide RSKAKWQTGT]

binding result [4]: binds
binding result [5]: binds
binding result [2]: binds
Binder: RSKAKWQTGTNPLYR (also: biotinylated, position not given here, also called 15-mer β6 peptide) [15 mer test peptide (seq. 4) RSKAKWQTGTNPLYR]
